This is an account of results in publication PMC12216326.

Test [1] deals with GST-DDX39B (residues 1-428) (human) (UniProt Q13838).
For test [2] the target is unchanged. This is another data set of the same source.

Chain of UniProt Q13838 (Q13838 whole entry, the tested form may be a part): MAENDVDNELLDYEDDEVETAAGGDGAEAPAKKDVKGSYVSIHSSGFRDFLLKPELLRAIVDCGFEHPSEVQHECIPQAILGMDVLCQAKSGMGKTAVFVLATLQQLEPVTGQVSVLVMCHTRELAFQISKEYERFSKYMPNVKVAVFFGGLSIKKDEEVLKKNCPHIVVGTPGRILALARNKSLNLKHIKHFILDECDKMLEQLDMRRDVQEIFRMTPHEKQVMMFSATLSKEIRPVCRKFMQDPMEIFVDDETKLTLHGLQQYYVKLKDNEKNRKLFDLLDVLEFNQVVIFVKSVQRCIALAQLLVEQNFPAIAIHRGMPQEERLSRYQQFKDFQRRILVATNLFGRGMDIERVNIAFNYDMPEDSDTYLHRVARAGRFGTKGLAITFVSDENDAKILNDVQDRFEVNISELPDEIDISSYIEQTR

“TREX-2.1 complex (LENG8 residues 490-800/PCID2/DSS1) (from UniProt Q96PV6-2 490-800; Q5JVF3 1-399; P60896 1-70)” displayed an ATPase activity of DDX39B (NADH enzyme-coupled assay with poly(A) RNA), stimulation by TREX-2.1 in test [1] of 80 fold.
Substance “TREX-2.1-mut (LENG8 residues 490-800 with 563RLTCAP568 replaced by GGGG/PCID2/DSS1) (from UniProt Q96PV6-2 490-800; Q5JVF3 1-399; P60896 1-70) (complex)” gave an ATPase activity of DDX39B, stimulation by TREX-2.1-mut against wild-type TREX-2.1 (fold reduction) in test [2] of 4.
